Ends that are not written are not given here. * marks the point of attachment. C16 diacid = O=C(O)CCCCCCCCCCCCCCC(=O)*
T1: human GIP receptor (human, UniProt P48546 22-466)
T1 sequence (looked up): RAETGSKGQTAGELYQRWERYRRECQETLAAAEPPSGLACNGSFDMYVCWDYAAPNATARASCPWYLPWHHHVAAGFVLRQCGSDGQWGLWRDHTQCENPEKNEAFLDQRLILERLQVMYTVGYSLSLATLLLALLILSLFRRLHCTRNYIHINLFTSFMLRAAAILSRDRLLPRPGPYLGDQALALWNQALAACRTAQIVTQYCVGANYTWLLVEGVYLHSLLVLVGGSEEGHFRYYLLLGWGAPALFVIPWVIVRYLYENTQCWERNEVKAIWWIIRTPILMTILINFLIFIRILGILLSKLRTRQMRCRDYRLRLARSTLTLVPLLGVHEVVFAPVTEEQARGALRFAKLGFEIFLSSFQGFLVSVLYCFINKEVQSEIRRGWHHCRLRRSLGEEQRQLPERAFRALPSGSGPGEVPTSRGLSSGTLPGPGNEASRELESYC


Biological target: T1, human GIP receptor
Assay: cell-based or functional assay

Binder | cAMP agonism, EC50 (log) [log M] | cAMP agonism, Emax [%] | cAMP agonism, nM (EC50) [nM] | cAMP antagonism, log (IC50) [log M] | cAMP antagonism, nM (IC50) [nM]
EGTFISDYSIAK(C16 diacid)DKIHQQDFVNWLLAQK-NH2 (N-terminus assumed; SMILES CC[C@H](C)[C@H](NC(=O)[C@H](CO)NC(=O)[C@H](Cc1ccc(O)cc1)NC(=O)[C@H](CC(=O)O)NC(=O)[C@H](CO)NC(=O)[C@@H](NC(=O)[C@H](Cc1ccccc1)NC(=O)[C@@H](NC(=O)CNC(=O)[C@@H](N)CCC(=O)O)[C@@H](C)O)[C@@H](C)CC)C(=O)N[C@@H](C)C(=O)N[C@@H](CCCCNC(=O)CCCCCCCCCCCCCCC(=O)O)C(=O)N[C@@H](CC(=O)O)C(=O)N[C@@H](CCCCN)C(=O)N[C@H](C(=O)N[C@@H](Cc1c[nH]cn1)C(=O)N[C@@H](CCC(N)=O)C(=O)N[C@@H](CCC(N)=O)C(=O)N[C@@H](CC(=O)O)C(=O)N[C@@H](Cc1ccccc1)C(=O)N[C@H](C(=O)N[C@@H](CC(N)=O)C(=O)N[C@@H](Cc1c[nH]c2ccccc12)C(=O)N[C@@H](CC(C)C)C(=O)N[C@@H](CC(C)C)C(=O)N[C@@H](C)C(=O)N[C@@H](CCC(N)=O)C(=O)N[C@@H](CCCCN)C(N)=O)C(C)C)[C@@H](C)CC) [AT305 [hGIP(3-30)NH2[M14K]-C16diacid/14]] | -8.1 | 12 | 8 | -6.8 | 166
EGTFISDYSIK(C16 diacid)MDKIHQQDFVNWLLAQK-NH2 (N-terminus assumed; SMILES CC[C@H](C)[C@H](NC(=O)[C@H](CCCCN)NC(=O)[C@H](CC(=O)O)NC(=O)[C@H](CCSC)NC(=O)[C@H](CCCCNC(=O)CCCCCCCCCCCCCCC(=O)O)NC(=O)[C@@H](NC(=O)[C@H](CO)NC(=O)[C@H](Cc1ccc(O)cc1)NC(=O)[C@H](CC(=O)O)NC(=O)[C@H](CO)NC(=O)[C@@H](NC(=O)[C@H](Cc1ccccc1)NC(=O)[C@@H](NC(=O)CNC(=O)[C@@H](N)CCC(=O)O)[C@@H](C)O)[C@@H](C)CC)[C@@H](C)CC)C(=O)N[C@@H](Cc1c[nH]cn1)C(=O)N[C@@H](CCC(N)=O)C(=O)N[C@@H](CCC(N)=O)C(=O)N[C@@H](CC(=O)O)C(=O)N[C@@H](Cc1ccccc1)C(=O)N[C@H](C(=O)N[C@@H](CC(N)=O)C(=O)N[C@@H](Cc1c[nH]c2ccccc12)C(=O)N[C@@H](CC(C)C)C(=O)N[C@@H](CC(C)C)C(=O)N[C@@H](C)C(=O)N[C@@H](CCC(N)=O)C(=O)N[C@@H](CCCCN)C(N)=O)C(C)C) [AT304 [hGIP(3-30)NH2[A13K]-C16diacid/13]] |  |  |  | -6.7 | 199
EGTFISDYSK(C16 diacid)AMDKIHQQDFVNWLLAQK-NH2 (N-terminus assumed; SMILES CC[C@H](C)[C@H](NC(=O)[C@H](CCCCN)NC(=O)[C@H](CC(=O)O)NC(=O)[C@H](CCSC)NC(=O)[C@H](C)NC(=O)[C@H](CCCCNC(=O)CCCCCCCCCCCCCCC(=O)O)NC(=O)[C@H](CO)NC(=O)[C@H](Cc1ccc(O)cc1)NC(=O)[C@H](CC(=O)O)NC(=O)[C@H](CO)NC(=O)[C@@H](NC(=O)[C@H](Cc1ccccc1)NC(=O)[C@@H](NC(=O)CNC(=O)[C@@H](N)CCC(=O)O)[C@@H](C)O)[C@@H](C)CC)C(=O)N[C@@H](Cc1c[nH]cn1)C(=O)N[C@@H](CCC(N)=O)C(=O)N[C@@H](CCC(N)=O)C(=O)N[C@@H](CC(=O)O)C(=O)N[C@@H](Cc1ccccc1)C(=O)N[C@H](C(=O)N[C@@H](CC(N)=O)C(=O)N[C@@H](Cc1c[nH]c2ccccc12)C(=O)N[C@@H](CC(C)C)C(=O)N[C@@H](CC(C)C)C(=O)N[C@@H](C)C(=O)N[C@@H](CCC(N)=O)C(=O)N[C@@H](CCCCN)C(N)=O)C(C)C) [AT303 [hGIP(3-30)NH2[I12K]-C16diacid/12]] | -7.6 | 24.2 | 28 | -7 | 90
EGTFISDYK(C16 diacid)IAMDKIHQQDFVNWLLAQK-NH2 (N-terminus assumed; SMILES CC[C@H](C)[C@H](NC(=O)[C@H](CCCCNC(=O)CCCCCCCCCCCCCCC(=O)O)NC(=O)[C@H](Cc1ccc(O)cc1)NC(=O)[C@H](CC(=O)O)NC(=O)[C@H](CO)NC(=O)[C@@H](NC(=O)[C@H](Cc1ccccc1)NC(=O)[C@@H](NC(=O)CNC(=O)[C@@H](N)CCC(=O)O)[C@@H](C)O)[C@@H](C)CC)C(=O)N[C@@H](C)C(=O)N[C@@H](CCSC)C(=O)N[C@@H](CC(=O)O)C(=O)N[C@@H](CCCCN)C(=O)N[C@H](C(=O)N[C@@H](Cc1c[nH]cn1)C(=O)N[C@@H](CCC(N)=O)C(=O)N[C@@H](CCC(N)=O)C(=O)N[C@@H](CC(=O)O)C(=O)N[C@@H](Cc1ccccc1)C(=O)N[C@H](C(=O)N[C@@H](CC(N)=O)C(=O)N[C@@H](Cc1c[nH]c2ccccc12)C(=O)N[C@@H](CC(C)C)C(=O)N[C@@H](CC(C)C)C(=O)N[C@@H](C)C(=O)N[C@@H](CCC(N)=O)C(=O)N[C@@H](CCCCN)C(N)=O)C(C)C)[C@@H](C)CC) [AT302 [hGIP(3-30)NH2[S11K]-C16diacid/11]] |  |  |  | -7.2 | 69
EGTFISDYSIAMDK(C16 diacid)IHQQDFVNWLLAQK-NH2 [AT370 [hGIP(3-30)NH2-C16diacid/16]] |  |  |  | -7.6 | 24.9
EGTFISDK(C16 diacid)SIAMDKIHQQDFVNWLLAQK-NH2 (N-terminus assumed; SMILES CC[C@H](C)[C@H](NC(=O)[C@H](CO)NC(=O)[C@H](CCCCNC(=O)CCCCCCCCCCCCCCC(=O)O)NC(=O)[C@H](CC(=O)O)NC(=O)[C@H](CO)NC(=O)[C@@H](NC(=O)[C@H](Cc1ccccc1)NC(=O)[C@@H](NC(=O)CNC(=O)[C@@H](N)CCC(=O)O)[C@@H](C)O)[C@@H](C)CC)C(=O)N[C@@H](C)C(=O)N[C@@H](CCSC)C(=O)N[C@@H](CC(=O)O)C(=O)N[C@@H](CCCCN)C(=O)N[C@H](C(=O)N[C@@H](Cc1c[nH]cn1)C(=O)N[C@@H](CCC(N)=O)C(=O)N[C@@H](CCC(N)=O)C(=O)N[C@@H](CC(=O)O)C(=O)N[C@@H](Cc1ccccc1)C(=O)N[C@H](C(=O)N[C@@H](CC(N)=O)C(=O)N[C@@H](Cc1c[nH]c2ccccc12)C(=O)N[C@@H](CC(C)C)C(=O)N[C@@H](CC(C)C)C(=O)N[C@@H](C)C(=O)N[C@@H](CCC(N)=O)C(=O)N[C@@H](CCCCN)C(N)=O)C(C)C)[C@@H](C)CC) [AT301 [hGIP(3-30)NH2[Y10K]-C16diacid/10]] | -7.9 | 8.5 | 12 | -6.8 | 163
EGTFISDYSIAMK(C16 diacid)KIHQQDFVNWLLAQK-NH2 (N-terminus assumed; SMILES CC[C@H](C)[C@H](NC(=O)[C@H](CO)NC(=O)[C@H](Cc1ccc(O)cc1)NC(=O)[C@H](CC(=O)O)NC(=O)[C@H](CO)NC(=O)[C@@H](NC(=O)[C@H](Cc1ccccc1)NC(=O)[C@@H](NC(=O)CNC(=O)[C@@H](N)CCC(=O)O)[C@@H](C)O)[C@@H](C)CC)C(=O)N[C@@H](C)C(=O)N[C@@H](CCSC)C(=O)N[C@@H](CCCCNC(=O)CCCCCCCCCCCCCCC(=O)O)C(=O)N[C@@H](CCCCN)C(=O)N[C@H](C(=O)N[C@@H](Cc1c[nH]cn1)C(=O)N[C@@H](CCC(N)=O)C(=O)N[C@@H](CCC(N)=O)C(=O)N[C@@H](CC(=O)O)C(=O)N[C@@H](Cc1ccccc1)C(=O)N[C@H](C(=O)N[C@@H](CC(N)=O)C(=O)N[C@@H](Cc1c[nH]c2ccccc12)C(=O)N[C@@H](CC(C)C)C(=O)N[C@@H](CC(C)C)C(=O)N[C@@H](C)C(=O)N[C@@H](CCC(N)=O)C(=O)N[C@@H](CCCCN)C(N)=O)C(C)C)[C@@H](C)CC) [AT306 [hGIP(3-30)NH2[D15K]-C16diacid/15]] | -7.9 | 6.6 | 13 | -7.3 | 53
EGTFISK(C16 diacid)YSIAMDKIHQQDFVNWLLAQK-NH2 (N-terminus assumed; SMILES CC[C@H](C)[C@H](NC(=O)[C@H](CO)NC(=O)[C@H](Cc1ccc(O)cc1)NC(=O)[C@H](CCCCNC(=O)CCCCCCCCCCCCCCC(=O)O)NC(=O)[C@H](CO)NC(=O)[C@@H](NC(=O)[C@H](Cc1ccccc1)NC(=O)[C@@H](NC(=O)CNC(=O)[C@@H](N)CCC(=O)O)[C@@H](C)O)[C@@H](C)CC)C(=O)N[C@@H](C)C(=O)N[C@@H](CCSC)C(=O)N[C@@H](CC(=O)O)C(=O)N[C@@H](CCCCN)C(=O)N[C@H](C(=O)N[C@@H](Cc1c[nH]cn1)C(=O)N[C@@H](CCC(N)=O)C(=O)N[C@@H](CCC(N)=O)C(=O)N[C@@H](CC(=O)O)C(=O)N[C@@H](Cc1ccccc1)C(=O)N[C@H](C(=O)N[C@@H](CC(N)=O)C(=O)N[C@@H](Cc1c[nH]c2ccccc12)C(=O)N[C@@H](CC(C)C)C(=O)N[C@@H](CC(C)C)C(=O)N[C@@H](C)C(=O)N[C@@H](CCC(N)=O)C(=O)N[C@@H](CCCCN)C(N)=O)C(C)C)[C@@H](C)CC) [AT300 [hGIP(3-30)NH2[D9K]-C16diacid/9]] |  |  |  | -7.7 | 22
